Values belong to the molecule of their own block, whether it stands above or below them.
Legend:
[1] = molecular target: microtubules (U2OS cells) (human (endogenous in U2OS)) (UniProt P07437); assay: co-sedimentation
[2] = molecular target: KRIT1 FERM domain, residues 417-736 (wild type) (human, UniProt O00522 417-736); assay: ITC
[3] = molecular target: KRIT1(R452E) FERM domain, residues 417-736 (human, UniProt O00522 417-736, R452E); assay: ITC
Chain of KRIT1(R452E) FERM domain, residues 417-736 (O00522 417-736 R452E): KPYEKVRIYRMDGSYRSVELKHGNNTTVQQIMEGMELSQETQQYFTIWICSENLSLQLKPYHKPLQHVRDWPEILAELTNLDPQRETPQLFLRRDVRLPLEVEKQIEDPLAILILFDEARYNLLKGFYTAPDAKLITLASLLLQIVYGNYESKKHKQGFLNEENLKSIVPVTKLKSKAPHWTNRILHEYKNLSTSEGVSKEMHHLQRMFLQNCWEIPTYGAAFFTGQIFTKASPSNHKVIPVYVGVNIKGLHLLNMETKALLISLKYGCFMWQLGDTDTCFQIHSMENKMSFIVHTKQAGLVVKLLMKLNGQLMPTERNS

Chain of KRIT1 FERM domain, residues 417-736 (wild type) (O00522 417-736): as the sequence (O00522 417-736 R452E) above, with E36R counted along it
Chain of microtubules (U2OS cells) (human (endogenous in U2OS)) (P07437 whole entry, looked up, the tested form may be a part): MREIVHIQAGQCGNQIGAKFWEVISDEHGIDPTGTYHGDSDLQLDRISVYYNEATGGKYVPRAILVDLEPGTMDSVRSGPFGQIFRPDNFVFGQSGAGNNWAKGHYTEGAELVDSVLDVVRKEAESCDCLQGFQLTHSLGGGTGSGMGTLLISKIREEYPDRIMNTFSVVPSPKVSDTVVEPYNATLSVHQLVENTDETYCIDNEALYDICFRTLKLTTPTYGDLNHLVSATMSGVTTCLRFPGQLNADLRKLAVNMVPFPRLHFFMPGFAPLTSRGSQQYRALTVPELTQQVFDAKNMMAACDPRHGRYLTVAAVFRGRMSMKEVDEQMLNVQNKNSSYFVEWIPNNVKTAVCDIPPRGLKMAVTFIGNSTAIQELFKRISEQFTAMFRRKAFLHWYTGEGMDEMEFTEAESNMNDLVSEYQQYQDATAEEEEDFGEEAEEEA

fold increase in association with microtubules over wild-type KRIT1 [1]: 8 fold
Molecule: GFP-fused KRIT1(R452E) (U2OS) (from UniProt O00522 1-736) (natural protein)

Kd [2]: 1.8 ± 0.25 µM
Kd [3]: 67 ± 18.7 µM
B1: Human Rap1 isoform Rap1B (residues 1-167) bound to GMP-PNP (domain or fragment, UniProt P61224 1-167, looked up)
chain: MREYKLVVLGSGGVGKSALTVQFVQGIFVEKYDPTIEDSYRKQVEVDAQQCMLEILDTAGTEQFTAMRDLYMKNGQGFALVYSITAQSTFNDLQDLREQILRVKDTDDVPMILVGNKCDLEDERVVGKEQGQNLARQWNNCAFLESSAKSKINVNEIFYDLVRQINR
